B1: Gsx2_site (dsDNA)
DNA 1: CAGAGTGTAATTAACATTCAGTAGTGCGGGCGTGGCT
DNA 2: AGCCACGCCCGCACTACTGAATGTTAATTACACTCTG
B2: Ac-Luc E2 (dsDNA)
DNA 1: CACCAACAGCTGCGTTTTTAGTGCGGGCGTGGCT
DNA 2: AGCCACGCCCGCACTAAAAACGCAGCTGTTGGTG

Legend:
Assay in all cases: EMSA
[1] = target: Gsx2 N253A homeodomain fragment (Mus musculus, UniProt P31316 167-305, N253A)
[2] = target: Gsx2 homeodomain fragment (Mus musculus, UniProt P31316 167-305)
E47 bHLH fragment = target: T1, E47 bHLH fragment (Mus musculus, UniProt P15806-2 430-648)
T1 sequence: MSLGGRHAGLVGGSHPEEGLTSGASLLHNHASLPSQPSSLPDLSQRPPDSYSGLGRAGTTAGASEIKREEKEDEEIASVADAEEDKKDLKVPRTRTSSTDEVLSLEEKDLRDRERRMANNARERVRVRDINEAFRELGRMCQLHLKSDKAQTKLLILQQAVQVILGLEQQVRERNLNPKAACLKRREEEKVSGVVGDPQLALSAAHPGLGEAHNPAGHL

Gsx2 N253A homeodomain fragment, sequence (P31316 167-305 N253A): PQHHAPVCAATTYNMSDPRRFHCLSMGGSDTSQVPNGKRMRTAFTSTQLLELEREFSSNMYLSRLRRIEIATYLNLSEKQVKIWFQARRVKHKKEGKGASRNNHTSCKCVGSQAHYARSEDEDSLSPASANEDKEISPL
Gsx2 homeodomain fragment, sequence (P31316 167-305): as the sequence (P31316 167-305 N253A) above, with A87N counted along it

Binder | binding result [1] | binding result [2] | binding result (E47 bHLH fragment)
B1 | no binding | binds | 
B2 |  |  | binds

Source: paper doi:10.1101/794511
